For series [1], the system named is GII.4 HuNoV VLP (VP1 capsid) (Human norovirus GII.4 Hu/GII.4/DBM15-156/2015). Description: BLI. The conditions noted are these: BLI: PBST + 5 mM Mg2+, biotin-aptamer 100 nM, VLP 18.75-150 nM, Octet RED96, ELASA: VLP 3 ug/mL, aptamer 1 uM, CD: 10 mM Tris-HCl pH 7.4, 1.0 mM NaCl, 0.05 mM …. (In general: In BLI a coated tip is dipped into the sample, and binding shifts an interference pattern.)

For series [2] the test system is unchanged. Kind of series: ELASA. The following applies: BLI: PBST + 5 mM Mg2+, biotin-aptamer 100 nM, VLP 18.75-150 nM, Octet RED96; ELASA: VLP 3 ug/mL, aptamer 1 uM; CD: 10 mM Tris-HCl pH 7.4, 1.0 mM NaCl, 0.05 mM ….
In a further series the target is GII.2 HuNoV VLP (Human norovirus GII.2 Env/CHN/2016, UniProt A0A291L9K1 1-542). Kind of series: AuNP colorimetric competition; A620/A520 < 0.4; BLI: PBST + 5 mM Mg2+, biotin-aptamer 100 nM, VLP 18.75-150 nM, Octet RED96; ELASA: VLP 3 ug/mL, aptamer 1 uM; CD: 10 mM Tris-HCl pH 7.4, 1.0 mM NaCl, 0.05 mM MgCl2, room temperature. The following applies: protein: recombinant; tags: His; chain copies: 180; label: biotin (5' in the colorimetric assay); stem-loops.

The target of a further series is GII.17 HuNoV VLP (Human norovirus GII.17 …, UniProt A0A0E3X5I8 1-540). Described as above. The conditions noted are these: protein: recombinant; chain copies: 180; label: biotin (5' in the colorimetric assay); stem-loops.

Experimental findings from publication PMC12650235, “Optimized Aptamer-Conjugated Gold Nanoparticles for Specific Detection of GII.4 Human Norovirus in Feces” are described below.

For orientation: Kd means the equilibrium constant for the complex coming apart. For the molecule “AACACGACCCACGTACCTGTGCGAGACACAGACCACCAAGGTGGGC [AP4-11]”, the Kd in series [1] came out at 2.28 nM. With “AACACGACCCACGTACCTGTGTGAGACACAGACCACCAAGGTGGGC [AP4-11-2 (C22T)]”, in series [1] (5 mM Mg2+, poor fit R2=0.86), the Kd is 4.62 nM. Also, in series [2], the binding signal (% of AP4-11 (46% loss)) came to 54.

B1: AP4-11 (structured_DNA)
DNA: AACACGACCCACGTACCTGTGCGAGACACAGACCACCAAGGTGGGC
On to B1, for which the binding result with GII.2 HuNoV VLP and with GII.17 HuNoV VLP was “no binding” throughout.
